# Where no end group is shown, it is not given here.
# Target: cdk2/cyclin A complex (UniProt P24941 1-298; P20248 1-432)
# Test: cell-based or functional assay
binder,measurement,value
"KKQVRMAHLVLT (also: fluorescent label Cy5 or FITC, position not given here) [Peptide targeting CDK/Cyclin C4: KKQVRMAHLVLT (SEQ ID No: 8)]","IC50 of cell proliferation, Hela, C4 delivered with Short6",80 nM
same,"IC50 of cell proliferation, Hela, C4 delivered with short7",45 nM
same,"IC50 of cell proliferation, Hela, C4 delivered with short11",150 nM
same,"IC50 of cell proliferation, MCF7, C4 delivered with Short6",50 nM
same,"IC50 of cell proliferation, MCF7, C4 delivered with short7",80 nM
same,"IC50 of cell proliferation, MCF7, C4 delivered with short11",200 nM
